Positions of bridges follow the written chain, without caps; N, C: chain ends. Non-standard residues stand in square brackets, D forms with d. No end group written: not given here. *: point of attachment. Biotin = O=C1N[C@H]2[C@H](CS[C@H]2CCCCC(=O)*)N1

Assay [1] addresses T1, Duffy Antigen Receptor for Chemokines (DARC) (human) (UniProt Q16570).
T1 sequence (looked up): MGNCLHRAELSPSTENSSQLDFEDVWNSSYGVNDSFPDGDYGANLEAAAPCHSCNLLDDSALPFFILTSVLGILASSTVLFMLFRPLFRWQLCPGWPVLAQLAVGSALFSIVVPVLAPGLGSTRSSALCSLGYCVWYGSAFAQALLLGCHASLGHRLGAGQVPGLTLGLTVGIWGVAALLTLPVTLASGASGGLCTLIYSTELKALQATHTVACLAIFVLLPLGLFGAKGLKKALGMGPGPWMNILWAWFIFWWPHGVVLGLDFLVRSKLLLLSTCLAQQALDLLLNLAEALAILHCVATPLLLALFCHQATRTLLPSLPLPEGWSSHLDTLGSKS
Put plainly: estimated ka for binding to red blood cells divided by average inhibitory ED50 in THP-1 migration.

Assay [2] addresses T1, Duffy Antigen Receptor for Chemokines (DARC) (human). The experiment in a line: Table 18, DARC binding (µM); >100 = ED50 not determined.
Assay [3] has as its target chemokine receptors on THP-1 cells. Put plainly: estimated ka for binding to THP-1 cells (column 'average ED50', peptide 2 family footnote).
Assay [4] addresses T2, Duffy Antigen Receptor for Chemokines (DARC) (human), Q16570.
T2 chain: T1 sequence (looked up)
Put plainly: Table 18, DARC binding (µM); method not restated.

Assay [5] concerns the target T2, Duffy Antigen Receptor for Chemokines …. The experiment in a line: Duffy binding; kind of constant not named.
For assay [6] the target is unchanged. The experiment in a line: Duffy binding against the LFL peptide.
The target in another assay is T3, CXCR4 (human), P61073.
T3 chain: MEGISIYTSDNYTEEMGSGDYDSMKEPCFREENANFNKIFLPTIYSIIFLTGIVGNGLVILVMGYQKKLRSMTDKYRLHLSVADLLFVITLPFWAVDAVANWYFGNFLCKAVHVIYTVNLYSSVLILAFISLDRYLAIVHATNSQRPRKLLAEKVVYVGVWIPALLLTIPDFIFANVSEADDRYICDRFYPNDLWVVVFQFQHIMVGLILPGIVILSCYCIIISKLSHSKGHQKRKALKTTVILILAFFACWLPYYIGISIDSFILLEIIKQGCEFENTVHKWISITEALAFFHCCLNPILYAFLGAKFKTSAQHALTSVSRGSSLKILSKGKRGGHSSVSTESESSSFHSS
Put plainly: not stated; given as affinity constant.

The target of another assay is CCR5 (human), P51681. The experiment in a line: not stated; given as affinity constant.
Assay [7] has as its target chemokine receptors on THP-1 cells. The experiment in a line: binding to chemokine receptors on THP-1 cells; given as association constant.
The target is the same in assay [8]. Put plainly: comparison of DARC binding and THP-1 cells.
The target is the same in assay [9]. The experiment in a line: biotinylated peptide 2 on THP-1 cells, streptavidin-peroxidase, with and without 100 µM peptide 3; given as affinity constant.
Assay [10] concerns the target T1, Duffy Antigen Receptor for Chemokines (DARC) (human). Put plainly: Table 18, DARC binding (µM); method not restated.
For assay [11] the target is unchanged. Put plainly: ka for binding to red blood cells divided by ka for binding to THP-1 cells.
Assay [12] has as its target chemokine receptors on THP-1 cells. The experiment in a line: binding to THP-1 cells; printed as association constant in concentration units.
The target in assay [13] is chemokine receptors on the surface of Jurkat cells. The experiment in a line: binding to chemokine receptors on the surface of Jurkat cells; printed as Ka in concentration units.
In assay [14] the target is chemokine receptors on THP-1 cells. Put plainly: binding to chemokine receptors on THP-1 cells; printed as Ka in concentration units.
For assay [15], the target named is T1, Duffy Antigen Receptor for Chemokines (DARC) (human). The experiment in a line: DARC binding; method not restated.

Chain of CCR5 (human), P51681 (P51681 whole entry): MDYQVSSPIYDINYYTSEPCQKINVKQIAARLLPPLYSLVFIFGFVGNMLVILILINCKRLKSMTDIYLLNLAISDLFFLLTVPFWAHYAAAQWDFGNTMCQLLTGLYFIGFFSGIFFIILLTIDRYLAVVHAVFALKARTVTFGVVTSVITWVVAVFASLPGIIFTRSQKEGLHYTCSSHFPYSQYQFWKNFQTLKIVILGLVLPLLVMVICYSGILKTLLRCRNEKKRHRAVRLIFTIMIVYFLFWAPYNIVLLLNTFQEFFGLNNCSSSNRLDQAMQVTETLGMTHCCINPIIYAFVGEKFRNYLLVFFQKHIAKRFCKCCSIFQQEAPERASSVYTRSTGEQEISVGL

In the case of CADPKQKWVQ [Peptide 3(3-12)[MCP-1]], in assay [1], the Duffy selectivity was 1.21. As to CPKEAV, in assay [2], the DARC binding was over 100 µM. With ELRVIESGPHCANTEI [Pep2(1-16)[IL8]], the dissociation constant (Kd) in assay [3] was 1 to 10 µM. With KQKWVQ [Peptide 3(7-12)[MCP-1]], the Duffy selectivity in assay [1] was 2.94. VAEKPCKSSTIRRYS (not fully specified (some residues)) [LRD peptide 2(1-15)[MCP-1]] registered a DARC binding in assay [4] of 18 µM. Besides, in the assay with chemokine receptors, the gp120 ED-50 was determined as 3 µM. Also, the dissociation constant (Kd) is 25 µM in assay [5]; under 0.1 µM with CXCR4 (human), P61073; under 0.1 µM with CCR5 (human), P51681. Also, the fold decrease in Duffy binding against LFL peptide 2 in assay [6] worked out at 100 fold.

In the assay with chemokine receptors, DYFETSSQCSKPGV [Pep2(1-14)[MIP1α]] came in with a gp120 ED-50 of over 100 µM. Besides, the Kd was 1 to 10 µM in assay [3] and 0.1 to 0.9 µM in [7]. In assay [8], EICLDPKQKWIQ [Leu4Ile11peptide 3(1-12)[MCP-1]] had a selectivity for receptors on THP-1 cells over DARC of over 20 fold.

Take Biotin-SYRRITSSKCPKEAV [N-terminal biotin-labeled derivative of peptide 2(1-15)[MCP-1]]: the Kd in assay [9] stood at 250 µM. The molecule HLKILNTPNCALQIV [Pep2(1-15)[SDF1]] gave a gp120 ED-50 in the assay with chemokine receptors of 35 µM. The molecule further displayed a DARC binding in [10] of 19 µM. The molecule further showed a Duffy selectivity in assay [11] of under 1. For the same molecule, the dissociation constant Kd in assay [3] was 1 to 10 µM. Take EICADP [Peptide 3(1-6)[MCP-1]]: the Duffy selectivity in assay [1] is 5.32. Turning to [dC][dQ][dV][dW][dK][dQ][dK][dP][dD][dA][dC] (disulfide 1-11; not fully specified) [CRD-Cys13pep3[3-12]], the Duffy selectivity in assay [1] is 8.82. On to [dC][dV][dA][dE][dK][dP][dS][dK][dS][dS][dT][dI][dR][dR][dY][dS][dC] (cysteine pairing not given here) [LRD Cys0Ser10Cys16 derivative of peptide 2(1-15)[MCP-1]], for which the DARC binding in assay [2] is over 100 µM. With EICADPSEEWVQ (not fully specified) [Ser7Glu8Glu9peptide 3(1-12)[MCP-1]], in [1], the Duffy selectivity is 0.59. For EICADPKQKWVQ [Peptide 3(1-12)[MCP-1]], the Kd in assay [12] was determined as 10 µM. The Duffy selectivity in assay [1] is 1. On to SYRRITSSKCPKEAV [Peptide 2(1-15)[MCP-1]], for which, in the assay with chemokine receptors, the gp120 ED-50 stood at 0.4 µM. Besides, the dissociation constant Kd is 2 µM in assay [3], 0.25 µM in assay [13] and 0.3 µM in [14]. As for EICADPSQKWVQ [Ser7peptide 3(1-12)[MCP-1]], in assay [1], the Duffy selectivity is 2. On to SYRRITSSKSPKEAV [Ser10 variant of peptide 2(1-15)[MCP-1]], for which the DARC binding in [15] is 20 to 100 µM.

These data come from patent publication EP2386565A2, “Compounds and methods to inhibit or augment an inflammatory response” (Cambridge Enterprise Ltd., priority 1999, dated 2000).
